Nine molecules from patent US20110076723A1, “ANTIBODY-PEPTIDE FUSED SYNERGIBODY” (SAMSUNG ELECTRONICS CO., LTD., priority 2008, published 2011) can be followed below.

To fix the notation:
B1: Syn-Ang-VEGFR-16: fused protein synergibody SAITAng-2-4 × DTN6VEGFR-2-1, peptide at C-terminal of heavy chain (protein)
heavy (part 1 of 2): QVQLQQSGAELARPGASVKLSCKASGYTFTDYYINWAKQRTGQGLEWIGEIYPGSGDTYYNEKFKGKATLTADKSSSTAYMQLSSLTSEDSAVYFCARYGYKGVYFDYWGQSTTLTVSS
heavy (part 2 of 2): TGSDDLCYTFPCMHY
light: ENVLTQSPAIMAASLGQKVTMTCSASSSVSSSYLHWYQQKSGASPKPLIHRTSNLASGVPARFSGSGSGTSYSLTISSVEAEDDATYYCQQWSGYPFTFGAGTKLELK
modifications: left off: a dimerising Fc or GST
notes: fused protein synergibody SAITAng-2-4 × DTN6VEGFR-2-1, peptide at C-terminal of heavy chain
B2: Syn-Ang-VEGFR-18: fused protein synergibody SAITAng-2-4 × DTN9VEGFR-2-3, peptide at C-terminal of heavy chain (protein)
heavy (part 1 of 2): B1 heavy (part 1 of 2)
heavy (part 2 of 2): EAGAYWCKAWGLSPCLVT
light: B1 light
modifications: left off: a dimerising Fc or GST
notes: fused protein synergibody SAITAng-2-4 × DTN9VEGFR-2-3, peptide at C-terminal of heavy chain
B3: Syn-Ang-VEGFR-20: fused protein synergibody SAITAng-2-4 × DTN11VEGFR-2-5, peptide at C-terminal of heavy chain (protein)
heavy (part 1 of 2): B1 heavy (part 1 of 2)
heavy (part 2 of 2): PGSQGYCHLNMRYQWICDSE
light: B1 light
modifications: left off: a dimerising Fc or GST
notes: fused protein synergibody SAITAng-2-4 × DTN11VEGFR-2-5, peptide at C-terminal of heavy chain
B4: Syn-Ang-VEGFR-17: fused protein synergibody SAITAng-2-4 × DTN8VEGFR-2-2, peptide at C-terminal of heavy chain (protein)
heavy (part 1 of 2): B1 heavy (part 1 of 2)
heavy (part 2 of 2): EAGKETCGYEWQYCPRP
light: B1 light
modifications: left off: a dimerising Fc or GST
notes: fused protein synergibody SAITAng-2-4 × DTN8VEGFR-2-2, peptide at C-terminal of heavy chain
B5: Syn-Ang-VEGFR-19: fused protein synergibody SAITAng-2-4 × DTN10VEGFR-2-4, peptide at C-terminal of heavy chain (protein)
heavy (part 1 of 2): B1 heavy (part 1 of 2)
heavy (part 2 of 2): TGSGRMCDGSGPPTNCWFT
light: B1 light
modifications: left off: a dimerising Fc or GST
notes: fused protein synergibody SAITAng-2-4 × DTN10VEGFR-2-4, peptide at C-terminal of heavy chain
B6: Syn-Ang-VEGFR-12: fused protein synergibody SAITAng-2-3 × DTN8VEGFR-2-2, peptide at C-terminal of heavy chain (protein)
heavy (part 1 of 2): DVQLVESGGGLVQPGGSRKLSCAASGFTFSSFGMHWVRQAPEKGLEWVAYISSDSSTIYYADTVKGRFTISRDNPKNTLFLQMTSLRSEDTAMYYCAREGGYDDYYAMDYWGQGTSVTVSS
heavy (part 2 of 2): EAGKETCGYEWQYCPRP
light: DIQMTQSPASQSASLGESVTITCLASQTIGTWLAWYQQKPGKSPQLLIYAATSLADGVPSRFSGSGSGTKFSFKISSLQAEDFVSYYCQQLYSIPLTFGGGTKLEIK
modifications: left off: a dimerising Fc or GST
notes: fused protein synergibody SAITAng-2-3 × DTN8VEGFR-2-2, peptide at C-terminal of heavy chain
B7: Syn-Ang-VEGFR-15: fused protein synergibody SAITAng-2-3 × DTN11VEGFR-2-5, peptide at C-terminal of heavy chain (protein)
heavy (part 1 of 2): B6 heavy (part 1 of 2)
heavy (part 2 of 2): PGSQGYCHLNMRYQWICDSE
light: B6 light
modifications: left off: a dimerising Fc or GST
notes: fused protein synergibody SAITAng-2-3 × DTN11VEGFR-2-5, peptide at C-terminal of heavy chain
B8: Syn-Ang-VEGFR-14: fused protein synergibody SAITAng-2-3 × DTN10VEGFR-2-4, peptide at C-terminal of heavy chain (protein)
heavy (part 1 of 2): B6 heavy (part 1 of 2)
heavy (part 2 of 2): TGSGRMCDGSGPPTNCWFT
light: B6 light
modifications: left off: a dimerising Fc or GST
notes: fused protein synergibody SAITAng-2-3 × DTN10VEGFR-2-4, peptide at C-terminal of heavy chain
B9: Syn-Ang-VEGFR-13: fused protein synergibody SAITAng-2-3 × DTN9VEGFR-2-3, peptide at C-terminal of heavy chain (protein)
heavy (part 1 of 2): B6 heavy (part 1 of 2)
heavy (part 2 of 2): EAGAYWCKAWGLSPCLVT
light: B6 light
modifications: left off: a dimerising Fc or GST
notes: fused protein synergibody SAITAng-2-3 × DTN9VEGFR-2-3, peptide at C-terminal of heavy chain

For this assay, the system named is HUVEC. Description: Cell-based functional assay, endothelial cell tube formation (BD BioCoat Angiogenesis System). More on the design: species or system human. The following applies: 5 μM fused protein synergibody, 18 hours; unrelated control group 12,227 ± 1,232. How it is done: Chimeric antibodies may be screened by functional assays such as cell-based assay for inhibition activity. In this example, BD BioCoat™ Angiogenesis System-Endothelial Cell Tube Formation (BD Biosciences) is used. BD Falcon 96-well Black/Clear plate coated with BD Matrigel Matrix that had been stored at −20° C. is slowly melted at 4° C. for 6 hours, and the mat cover of the plate is removed inside a sterile clean bench. Then it is left at 37° C. , 5% CO2 for 30 minutes so that the Matrigel™ Matrix would form polymers. Then it is made into a suspension by treating HUVEC, cultured on a petridish containing EGM-2 MV (Lonza) medium added with 10% fetal bovine serum to 70 to 80% confluence, with 0.5% Trypsin-EDTA (Gibco). Then it is resuspended in a culture medium containing 10% fetal bovine serum to a cell concentration of 4×10^5 cells/ml. At this time, 5 μM of each anti-Ang-2 chimeric antibodies expressed and purified in Section 5 above are also added and resuspended. Then 50 μl (about 2×10^4 cells) of each of the suspension is added to each well of the plate and incubated at 37° C. , 5% CO2 for 18 hours. Then the medium is removed and each well is washed twice with 100 μl of Hanks' balanced salt solution (HBSS, Invitrogen) ensuring that the tubes of the cells formed on BD Matrigel™ Matrix are not damaged. 50 μl of calcein AM (BD sciences) dissolved in HBSS at the concentration of 8 μg/ml is added to each well. The plate is then left to react at 37° C., 5% CO2 for 30 minutes and the calcein AM (BD sciences) solution is removed and washed twice with HBSS. Lastly, an image of the length of the entire tube of HUVEC formed on BD Matrigel™ Matrix is obtained on a fluorescent microscope and analyzed by using MetaMorph® software (Universal Imaging Corporation™, http://www.moleculardevices.com).
The peptides synthesized in Section 6A above are screened by cell-based functional assay for inhibition activity. The method described in Example 1, Section 7 is used, except that 5 μM synthesized peptides are added instead of anti-Ang-2 antibodies.
The fused protein synergibodies prepared in Section 1 above are screened using cell-based functional assay for inhibition activity. The method described in Example 1, Section 7 is used, except that, in this example, 5 μM of fused protein synergibodies are added instead of anti-Ang-2 antibodies.
Take B1: the “Length of entire tube of HUVEC (2 × 10^4 cells) (pixels)” value (from here on “Length of entire tube of HUVEC”) was 5,022 ± 809 pixels.
As to B2, the “Length of entire tube of HUVEC” value was 5,723 ± 736 pixels.
Turning to B3, the “Length of entire tube of HUVEC” value was 5,512 ± 699 pixels.
In the case of B4, the “Length of entire tube of HUVEC” value is 5,215 ± 714 pixels.
Turning to B5, the “Length of entire tube of HUVEC” value is 5,329 ± 822 pixels.
For the molecule B6, the “Length of entire tube of HUVEC” value is 3,899 ± 923 pixels.
With B7, the “Length of entire tube of HUVEC” value is recorded as 4,116 ± 815 pixels.
The result for B8 reads 4,183 ± 698 pixels.
For B9, the “Length of entire tube of HUVEC” value is 4,216 ± 747 pixels.
